From the supplement of paper PMC7877785
± gives the uncertainty stated by the source.

Assay: self-splicing fitness, log relative to wild type (ln ratio); higher = more splicing; Tetrahymena group I intron in knt gene, E. coli kanamycin selection, DiMSum; sequences stand for … in CUCUCU…GGAGGGAAAAGUUAUCAGGCAUGCACCUGGUAGCUAGUCUUUAAACCAAUAGAUUGCAUCGGUUUAAAAGGCAAGACCGUCAAAUUGCGGGAAAGGGGUCAACAGCCGUUCAGUACCAAGUCUCAGGGGAAACUUUGAGAUGGCCUUGCAAAGGGUAUGGUAAUAAGCUGACGGACAUGGUCCUAACCACGCAGCCAAGUCCUAAGUCAACAGAUCUUCUGUUGAUAUGGAUGCAGUUCACAGACUAAAUGUCGGUCGGGGAAGAUGUAUUCUUCUCAUAAGAUAUAGUCGGACCUCUCCUUAAUGGGAGCUAGCGGAUGAAGUGAUGCAACACUGGAGCCGCUGGGAACUAAUUUGUAUGCGAAAGUAUAUUGAUUAGUUUUGGAGUACUCGUGGUCG
In short: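 Colonies from six replicate transformations of E. coli BL21(DE3) were pooled and amplicon-sequenced on an Illumina HiSeq 2500. The library placed an intron with all eight P1ex-region nucleotides randomised inside the knt kanamycin-resistance gene on pET-22b(+), and cells grew overnight at 37°C or 30°C on LB agar with or without 25 μg/mL kanamycin (plus 100 μg/mL carbenicillin, 50 μM IPTG, 0.2% rhamnose). Fitness is the DiMSum error-weighted combination of wild-type-normalised replicate fold changes, kanamycin versus none.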

Row | Sequence | self-splicing fitness (ln) (30 °C) | self-splicing fitness (ln) (37 °C)
1 | UAAGAGCAAUAUUACGGGAU | -3.55 ± 0.31 | -2.99 ± 0.28
2 | UAAGAGCAAUAUUACGGUGA | -3.83 ± 0.23 | -2.14 ± 0.16
3 | UAAGAGCAAUAUUACGUCGC | – | -3.39 ± 0.37
4 | UAAGAGCAAUAUUACGUUGC | -2.74 ± 0.29 | -2.32 ± 0.4
5 | UAAUAGCAAUAUUACGAAAU | – | -2.07 ± 0.36
6 | UAAUAGCAAUAUUACGAACG | -0.579 ± 0.071 | -0.187 ± 0.082
7 | UAAUAGCAAUAUUACGAACU | -1.37 ± 0.14 | -1.62 ± 0.17
8 | UAAUAGCAAUAUUACGAGAC | -3.38 ± 0.28 | -2.03 ± 0.28
9 | UAAUAGCAAUAUUACGAGAU | -4.03 ± 0.43 | -2.38 ± 0.47
10 | UAAUAGCAAUAUUACGAGGC | -3.59 ± 0.35 | -1.46 ± 0.33
11 | UAAUAGCAAUAUUACGAGUC | -2.97 ± 0.19 | -3.77 ± 0.42
12 | UAAUAGCAAUAUUACGCACG | -1.1 ± 0.16 | 0.193 ± 0.24
13 | UAAUAGCAAUAUUACGCGAG | -1.62 ± 0.14 | -1.46 ± 0.13
14 | UAAUAGCAAUAUUACGGACU | -1.25 ± 0.15 | -1.43 ± 0.18
15 | UAAUAGCAAUAUUACGGCCC | -2.07 ± 0.34 | -0.336 ± 0.46
16 | UAAUAGCAAUAUUACGGCGG | -1.27 ± 0.15 | -0.245 ± 0.16
17 | UAAUAGCAAUAUUACGGGUG | -1.9 ± 0.096 | -0.875 ± 0.094
18 | UAAUAGCAAUAUUACGGUAU | -3.69 ± 0.21 | -2.68 ± 0.23
19 | UAAUAGCAAUAUUACGUAGG | -2.37 ± 0.13 | -1.06 ± 0.14
20 | UAAUAGCAAUAUUACGUCCU | -0.907 ± 0.19 | -0.798 ± 0.23
21 | UAAUAGCAAUAUUACGUCGU | -2.91 ± 0.34 | -0.94 ± 0.23
22 | UAAUAGCAAUAUUACGUGGG | -2.91 ± 0.3 | -3.08 ± 0.27
23 | UAAUAGCAAUAUUACGUUUA | -1.86 ± 0.15 | -1.81 ± 0.12
24 | UACAAGCAAUAUUACGACGG | -0.767 ± 0.059 | -0.442 ± 0.079

Row | Sequence | self-splicing fitness (ln) (30 °C) | self-splicing fitness (ln) (37 °C)
25 | UACAAGCAAUAUUACGAGAG | -3.24 ± 0.17 | -2.65 ± 0.18
26 | UACAAGCAAUAUUACGAGGA | -2.98 ± 0.2 | -1.8 ± 0.14
27 | UACAAGCAAUAUUACGAUUA | -0.0989 ± 0.079 | 0.278 ± 0.085
28 | UACAAGCAAUAUUACGCACC | -1.62 ± 0.14 | -1.42 ± 0.23
29 | UACAAGCAAUAUUACGCCGU | -2.13 ± 0.16 | -1.62 ± 0.18
30 | UACAAGCAAUAUUACGCGAC | -3.51 ± 0.27 | -1.5 ± 0.22
31 | UACAAGCAAUAUUACGCUGG | -2.54 ± 0.15 | -1.87 ± 0.15
32 | UACAAGCAAUAUUACGGAGC | -3.08 ± 0.21 | -2.78 ± 0.34
33 | UACAAGCAAUAUUACGUCAU | -3.94 ± 0.16 | -1.05 ± 0.096
34 | UACAAGCAAUAUUACGUCCA | -1.06 ± 0.086 | -0.297 ± 0.096
35 | UACAAGCAAUAUUACGUCGA | -1.78 ± 0.08 | -0.266 ± 0.082
36 | UACAAGCAAUAUUACGUGUA | -3.33 ± 0.15 | -2.69 ± 0.14
37 | UACAAGCAAUAUUACGUGUG | -2.96 ± 0.11 | -1.7 ± 0.1
38 | UACAAGCAAUAUUACGUUAA | -3.35 ± 0.14 | -1.74 ± 0.092
39 | UACCAGCAAUAUUACGAAAA | -1.43 ± 0.17 | -1.11 ± 0.13
40 | UACCAGCAAUAUUACGAAAU | -2.64 ± 0.14 | -1.26 ± 0.13
41 | UACCAGCAAUAUUACGACUU | -0.799 ± 0.046 | -0.301 ± 0.056
42 | UACCAGCAAUAUUACGAUAA | -0.622 ± 0.093 | -0.122 ± 0.1
43 | UACCAGCAAUAUUACGCACU | -0.478 ± 0.063 | 0.393 ± 0.081
44 | UACCAGCAAUAUUACGCAUC | -1.93 ± 0.095 | -1.13 ± 0.095
45 | UACCAGCAAUAUUACGCAUU | -2.42 ± 0.092 | -0.373 ± 0.078
46 | UACCAGCAAUAUUACGCCAG | -0.698 ± 0.08 | -1.13 ± 0.1
47 | UACCAGCAAUAUUACGCCCG | -0.0448 ± 0.11 | -0.0962 ± 0.14
48 | UACCAGCAAUAUUACGCCCU | -0.895 ± 0.12 | 0.138 ± 0.13
